Measurements from patent publication US20030129724A1 (Harvard, published 2003).

T1: Recombinant FLAG-epitope tagged HDAC6 (human, UniProt Q9UBN7 1-1215)
T1 construct: Full length ORF with C-terminal FLAG tag in pBJ5, expressed in TAg Jurkat cells; also called HDAC6-FLAG; HD6
T1 sequence: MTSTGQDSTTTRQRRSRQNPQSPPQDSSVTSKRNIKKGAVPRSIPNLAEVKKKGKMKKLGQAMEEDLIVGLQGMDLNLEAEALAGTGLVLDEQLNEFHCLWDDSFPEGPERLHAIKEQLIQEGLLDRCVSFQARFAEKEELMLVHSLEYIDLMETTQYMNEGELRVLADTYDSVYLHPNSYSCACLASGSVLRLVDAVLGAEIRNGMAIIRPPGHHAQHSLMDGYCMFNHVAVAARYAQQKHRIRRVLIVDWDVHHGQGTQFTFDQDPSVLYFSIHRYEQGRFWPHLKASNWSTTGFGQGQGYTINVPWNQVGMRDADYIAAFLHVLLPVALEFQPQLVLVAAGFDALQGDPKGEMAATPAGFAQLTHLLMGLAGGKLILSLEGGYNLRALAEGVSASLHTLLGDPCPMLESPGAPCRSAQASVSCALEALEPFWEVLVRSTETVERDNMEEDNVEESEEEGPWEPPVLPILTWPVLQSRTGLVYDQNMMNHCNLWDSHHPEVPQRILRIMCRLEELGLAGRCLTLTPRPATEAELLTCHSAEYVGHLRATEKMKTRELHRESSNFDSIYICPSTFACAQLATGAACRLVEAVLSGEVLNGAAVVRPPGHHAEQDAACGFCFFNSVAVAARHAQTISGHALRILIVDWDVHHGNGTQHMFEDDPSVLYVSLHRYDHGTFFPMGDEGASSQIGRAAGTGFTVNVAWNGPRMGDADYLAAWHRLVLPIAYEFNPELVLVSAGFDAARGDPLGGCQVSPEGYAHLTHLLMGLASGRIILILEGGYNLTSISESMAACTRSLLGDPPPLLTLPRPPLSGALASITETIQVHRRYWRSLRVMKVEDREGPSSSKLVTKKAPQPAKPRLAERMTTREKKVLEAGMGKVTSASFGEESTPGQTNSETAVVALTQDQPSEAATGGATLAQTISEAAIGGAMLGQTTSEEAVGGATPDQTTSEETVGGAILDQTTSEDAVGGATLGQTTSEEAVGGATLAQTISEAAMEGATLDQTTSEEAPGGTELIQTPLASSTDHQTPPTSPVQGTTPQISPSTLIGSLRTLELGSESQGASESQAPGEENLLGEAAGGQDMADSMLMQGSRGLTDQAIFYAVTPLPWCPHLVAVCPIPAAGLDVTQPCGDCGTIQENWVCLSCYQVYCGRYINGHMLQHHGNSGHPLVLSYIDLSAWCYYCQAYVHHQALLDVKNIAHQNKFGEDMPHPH

T2: HDAC3 from calyculin A-treated cells, O15379
T2 chain: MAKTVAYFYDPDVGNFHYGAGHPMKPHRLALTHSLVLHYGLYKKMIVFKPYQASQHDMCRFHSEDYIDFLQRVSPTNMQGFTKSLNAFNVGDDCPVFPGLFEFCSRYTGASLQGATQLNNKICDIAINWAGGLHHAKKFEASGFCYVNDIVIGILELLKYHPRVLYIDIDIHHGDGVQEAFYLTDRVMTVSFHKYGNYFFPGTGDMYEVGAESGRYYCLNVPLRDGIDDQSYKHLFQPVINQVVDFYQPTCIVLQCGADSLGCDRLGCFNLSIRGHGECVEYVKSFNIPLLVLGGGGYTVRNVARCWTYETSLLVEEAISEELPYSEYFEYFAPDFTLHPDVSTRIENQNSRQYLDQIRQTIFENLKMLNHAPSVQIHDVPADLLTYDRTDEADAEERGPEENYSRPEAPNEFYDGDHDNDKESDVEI

T3: mSin3A (UniProt Q96ST3 1-1273)
T3 construct: Endogenous protein detected by Western blot in immunoprecipitates; also called co-repressor mSin3A
T3 sequence (looked up): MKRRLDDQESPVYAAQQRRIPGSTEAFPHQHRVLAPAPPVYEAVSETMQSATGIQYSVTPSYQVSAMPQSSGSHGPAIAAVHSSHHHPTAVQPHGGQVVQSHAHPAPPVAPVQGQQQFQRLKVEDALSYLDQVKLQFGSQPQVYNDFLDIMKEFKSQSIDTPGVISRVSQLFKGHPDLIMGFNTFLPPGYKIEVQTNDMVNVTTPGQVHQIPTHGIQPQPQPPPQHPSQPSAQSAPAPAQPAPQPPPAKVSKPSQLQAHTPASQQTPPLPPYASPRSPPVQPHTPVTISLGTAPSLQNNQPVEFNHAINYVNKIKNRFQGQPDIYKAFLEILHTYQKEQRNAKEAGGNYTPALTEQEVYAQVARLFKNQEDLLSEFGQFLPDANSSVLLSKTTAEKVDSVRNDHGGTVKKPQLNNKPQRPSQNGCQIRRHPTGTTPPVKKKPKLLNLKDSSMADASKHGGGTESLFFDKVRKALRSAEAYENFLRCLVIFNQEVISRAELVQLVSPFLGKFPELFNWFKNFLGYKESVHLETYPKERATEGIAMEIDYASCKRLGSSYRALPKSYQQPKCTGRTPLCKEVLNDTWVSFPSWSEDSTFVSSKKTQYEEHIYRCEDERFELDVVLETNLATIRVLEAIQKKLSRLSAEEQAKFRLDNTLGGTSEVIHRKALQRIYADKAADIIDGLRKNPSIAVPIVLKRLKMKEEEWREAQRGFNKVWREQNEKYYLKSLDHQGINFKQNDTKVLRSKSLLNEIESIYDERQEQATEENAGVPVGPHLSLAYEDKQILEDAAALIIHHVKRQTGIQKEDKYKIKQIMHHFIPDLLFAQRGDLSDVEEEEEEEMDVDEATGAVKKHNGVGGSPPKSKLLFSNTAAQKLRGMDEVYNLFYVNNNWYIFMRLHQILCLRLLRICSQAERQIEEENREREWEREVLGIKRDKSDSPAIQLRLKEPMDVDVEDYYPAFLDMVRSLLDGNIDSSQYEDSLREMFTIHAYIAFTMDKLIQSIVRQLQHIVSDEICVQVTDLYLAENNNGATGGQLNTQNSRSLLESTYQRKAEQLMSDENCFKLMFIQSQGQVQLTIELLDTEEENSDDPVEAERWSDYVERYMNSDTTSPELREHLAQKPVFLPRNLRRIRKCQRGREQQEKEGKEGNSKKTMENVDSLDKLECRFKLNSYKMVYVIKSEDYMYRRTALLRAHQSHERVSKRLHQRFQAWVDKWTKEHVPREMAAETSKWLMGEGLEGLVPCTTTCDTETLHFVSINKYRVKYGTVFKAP

B1: Recombinant FLAG-epitope tagged HDAC4 (enzyme, not shown: small tags and cut ends)
chain: MSSQSHPDGLSGRDQPVELLNPARVNHMPSTVDVATALPLQVAPSAVPMDLRLDHQFSLPVAEPALREQQLQQELLALKQKQQIQRQILIAEFQRQHEQLSRQHEAQLHEHIKQQQEMLAMKHQQELLEHQRKLERHRQEQELEKQHREQKLQQLKNKEKGKESAVASTEVKMKLQEFVLNKKKALAHRNLNHCISSDPRYWYGKTQHSSLDQSSPPQSGVSTSYNHPVLGMYDAKDDFPLRKTASEPNLKLRSRLKQKVAERRSSPLLRRKDGPVVTALKKRPLDVTDSACSSAPGSGPSSPNNSSGSVSAENGIAPAVPSIPAETSLAHRLVAREGSAAPLPLYTSPSLPNITLGLPATGPSAGTAGQQDTERLTLPALQQRLSLFPGTHLTPYLSTSPLERDGGAAHSPLLQHMVLLEQPPAQAPLVTGLGALPLHAQSLVGADRVSPSIHKLRQHRPLGRTQSAPLPQNAQALQHLVIQQQHQQFLEKHKQQFQQQQLQMNKIIPKPSEPARQPESHPEETEEELREHQALLDEPYLDRLPGQKEAHAQAGVQVKQEPIESDEEEAEPPREVEPGQRQPSEQELLFRQQALLLEQQRIHQLRNYQASMEAAGIPVSFGGHRPLSRAQSSPASATFPVSVQEPPTKPRFTTGLVYDTLMLKHQCTCGSSSSHPEHAGRIQSIWSRLQETGLRGKCECIRGRKATLEELQTVHSEAHTLLYGTNPLNRQKLDSKKLLGSLASVFVRLPCGGVGVDSDTIWNEVHSAGAARLAVGCVVELVFKVATGELKNGFAVVRPPGHHAEESTPMGFCYFNSVAVAAKLLQQRLSVSKILIVDWDVHHGNGTQQAFYSDPSVLYMSLHRYDDGNFFPGSGAPDEVGTGPGVGFNVNMAFTGGLDPPMGDAEYLAAFRTVVMPIASEFAPDVVLVSSGFDAVEGHPTPLGGYNLSARCFGYLTKQLMGLAGGRIVLALEGGHDLTAICDASEACVSALLGNELDPLPEKVLQQRPNANAVRSMEKVMEIHSKYWRCLQRTTSTAGRSLIEAQTCENEEAETVTAMASLSVGVKPAEKRPDEEPMEEEPPL
notes: Complete HDAC4 ORF with C-terminal FLAG tag in pBJ5, transiently expressed in TAg Jurkat cells (untreated) and immunoprecipitated with anti-FLAG agarose; also called HDAC4-FLAG; HDAC4-F

Legend:
[1] = target: B1; experiment: anti-FLAG co-immunoprecipitation from TAg Jurkat cells, Western blot
[2] = target: T1, Recombinant FLAG-epitope tagged HDAC6; experiment: as above
[3] = target: T2, HDAC3 from calyculin A-treated cells, …
CHD4 = target: T4, CHD4 (UniProt Q14839 1-1912, limits assumed); experiment: anti-FLAG co-immunoprecipitation from TAg Jurkat cells, Western blot
T4 construct: Endogenous protein detected by Western blot in immunoprecipitates; also called CHD chromodomain protein
T4 sequence (Q14839 whole entry): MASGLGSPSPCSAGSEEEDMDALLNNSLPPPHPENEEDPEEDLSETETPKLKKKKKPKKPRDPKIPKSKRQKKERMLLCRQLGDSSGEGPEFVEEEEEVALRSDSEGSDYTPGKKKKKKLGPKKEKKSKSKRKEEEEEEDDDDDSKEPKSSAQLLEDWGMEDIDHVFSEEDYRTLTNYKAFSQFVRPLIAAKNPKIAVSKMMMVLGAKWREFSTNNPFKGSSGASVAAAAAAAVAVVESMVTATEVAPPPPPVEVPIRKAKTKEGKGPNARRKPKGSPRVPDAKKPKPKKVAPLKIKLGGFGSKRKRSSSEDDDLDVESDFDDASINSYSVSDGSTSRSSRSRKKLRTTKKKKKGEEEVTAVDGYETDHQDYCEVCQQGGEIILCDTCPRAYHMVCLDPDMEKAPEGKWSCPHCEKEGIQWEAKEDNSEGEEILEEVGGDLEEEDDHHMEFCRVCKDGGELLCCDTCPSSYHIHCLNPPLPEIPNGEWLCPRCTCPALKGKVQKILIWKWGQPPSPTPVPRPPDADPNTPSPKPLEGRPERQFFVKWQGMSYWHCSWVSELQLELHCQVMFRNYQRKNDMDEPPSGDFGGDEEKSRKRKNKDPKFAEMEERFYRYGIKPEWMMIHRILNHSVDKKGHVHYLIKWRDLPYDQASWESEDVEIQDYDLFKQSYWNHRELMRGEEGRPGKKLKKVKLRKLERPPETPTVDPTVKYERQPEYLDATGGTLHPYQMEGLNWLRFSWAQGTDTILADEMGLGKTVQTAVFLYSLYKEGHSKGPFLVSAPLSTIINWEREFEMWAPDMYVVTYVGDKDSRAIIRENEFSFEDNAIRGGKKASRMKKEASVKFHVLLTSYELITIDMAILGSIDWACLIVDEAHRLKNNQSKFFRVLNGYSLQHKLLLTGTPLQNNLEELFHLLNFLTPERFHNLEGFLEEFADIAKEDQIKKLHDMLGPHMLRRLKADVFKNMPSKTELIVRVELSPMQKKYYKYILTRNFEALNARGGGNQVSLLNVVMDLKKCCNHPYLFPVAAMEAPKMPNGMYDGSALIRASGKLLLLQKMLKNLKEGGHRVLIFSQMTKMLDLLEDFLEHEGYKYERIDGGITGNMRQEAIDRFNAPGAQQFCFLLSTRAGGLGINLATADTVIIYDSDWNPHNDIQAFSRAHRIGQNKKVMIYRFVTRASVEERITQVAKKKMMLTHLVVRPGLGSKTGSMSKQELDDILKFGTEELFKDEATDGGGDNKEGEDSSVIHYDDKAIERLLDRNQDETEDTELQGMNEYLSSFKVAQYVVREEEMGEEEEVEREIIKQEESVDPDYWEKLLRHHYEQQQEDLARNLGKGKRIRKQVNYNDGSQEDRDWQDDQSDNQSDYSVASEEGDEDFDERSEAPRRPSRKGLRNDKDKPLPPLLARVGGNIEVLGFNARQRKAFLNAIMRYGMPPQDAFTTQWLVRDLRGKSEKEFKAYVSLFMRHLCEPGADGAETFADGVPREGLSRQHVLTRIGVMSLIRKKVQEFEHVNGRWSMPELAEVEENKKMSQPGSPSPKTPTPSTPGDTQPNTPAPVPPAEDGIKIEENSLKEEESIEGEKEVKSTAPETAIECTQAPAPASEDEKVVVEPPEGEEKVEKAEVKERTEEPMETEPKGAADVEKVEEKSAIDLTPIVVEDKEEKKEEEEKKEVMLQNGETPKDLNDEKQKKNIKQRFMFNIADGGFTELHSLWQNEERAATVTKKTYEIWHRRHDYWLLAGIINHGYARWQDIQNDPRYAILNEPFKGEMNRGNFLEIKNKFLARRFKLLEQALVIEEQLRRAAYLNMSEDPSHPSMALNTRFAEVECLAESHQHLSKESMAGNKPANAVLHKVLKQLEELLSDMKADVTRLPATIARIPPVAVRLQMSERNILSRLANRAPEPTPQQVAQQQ

mSin3A = target: T3, mSin3A; experiment: anti-FLAG co-immunoprecipitation from TAg Jurkat cells, Western blot; an unexplained band of lower molecular weight was seen in the mSin3A blot
From the text: Immunoprecipitates were probed with -CHD4, -mSin3A, -MTA, -RbAp48, -HDAC1, and -HDAC3 antibodies (FIG. 5B).

binding result [1]	binding result [2]	binding result (CHD4)	binding result (mSin3A)	Binder	immunoprecipitated HDAC activity (release of 3H-acetic acid) [3]
no binding	no binding			MTA (other, UniProt Q13330 1-715, looked up, also called metastasis-associated factors (MTA)) MAANMYRVGDYVYFENSSSNPYLIRRIEELNKTANGNVEAKVVCFYRRRDISSTLIALADKHATLSVCYKAGPGADNGEEGEIEEEMENPEMVDLPEKLKHQLRHRELFLSRQLESLPATHIRGKCSVTLLNETESLKSYLEREDFFFYSLVYDPQQKTLLADKGEIRVGNRYQADITDLLKEGEEDGRDQSRLETQVWEAHNPLTDKQIDQFLVVARSVGTFARALDCSSSVRQPSLHMSAAAASRDITLFHAMDTLHKNIYDISKAISALVPQGGPVLCRDEMEEWSASEANLFEEALEKYGKDFTDIQQDFLPWKSLTSIIEYYYMWKTTDRYVQQKRLKAAEAESKLKQVYIPNYNKPNPNQISVNNVKAGVVNGTGAPGQSPGAGRACESCYTTQSYQWYSWGPPNMQCRLCASCWTYWKKYGGLKMPTRLDGERPGPNRSNMSPHGLPARSSGSPKFAMKTRQAFYLHTTKLTRIARRLCREILRPWHAARHPYLPINSAAIKAECTARLPEASQSPLVLKQAVRKPLEAVLRYLETHPRPPKPDPVKSVSSVLSSLTPAKVAPVINNGSPTILGKRSYEQHNGVDGNMKKRLLMPSRGLANHGQARHMGPSRNLLLNGKSYPTKVRLIRGGSLPPVKRRRMNWIDAPDDVFYMATEETRKIRKLLSSSETKRAARRPYKPIALRQSQALPPRPPPPAPVNDEPIVIED	
		no binding	no binding	B1	dramatic reduction in immunoprecipitated HDAC activity
